Experimental data published in the nanobody polyreactivity screen of Harvey et al. (2022).

Assay: yeast display, Sf9 membrane polyspecificity reagent, FACS + sequencing; frameworks hold sequencing errors
Outline: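 Sorting gates, low and high (top ~1%), were placed on anti-HA fluorescence to track expression and on streptavidin fluorescence to track reagent binding. A clone's polyreactivity label is taken from the gate it came out of. The reagent was 10% biotinylated, detergent-solubilized Sf9 membrane, applied for 1 hour at 4 °C to galactose-induced yeast display cells.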

Sequence | polyreactivity (PSR sort gate)
QGQLVESGGGLVQAGGSLRLSCAASGLIFVWYAMGWYRQARGKERELVAAISWSGGSTYYADSVKGRFTISRDNAKNTVYLQMNSLKPEDTAVYYCATDPYGYSYLLVDYNYWGQGTQVTVSS | low polyreactivity
QVQLVESGGGLVQAGGSLRLSCAASGRTFIGYAMGWYRQAPGKERELVAAISSGGNTYYADSVKGRFTISRDNAKNTVYFQMNSLKPEDTAVYYCAAKGYRRVARYFIGDYWGQGTQVTVSS | low polyreactivity
QVKLEESGGGLVQAGGSLRLSCAASGSIFVVNAMGRYRPAPGKERELVDTITESGGSTYYADSVKGRFTISRDNAKNTVYLQMNSLKPEDTAVYYCAAYWHHKGDYWGQGTQVTVSS | low polyreactivity
QVQLVESGGGVVQAGGSLRLSCAASGRIFVYYMGWYRQAPGKERVLVAAISVGGGSTYYADSVKGRFTISRDHAKNTVYLQMNSLKPEDTAVYYCAAAWSNYFGDPSYYWGQGTQVTVSS | low polyreactivity
QVQLVESGGGLVQAGGSLRLSCAASGRIFGYYAMGWYRQAPGQERELVAAITRNGGSTYYADSVKGRFTISRDNAKNTVYLQMTSLKPEDTAVYYCAATKGGGRGYWGQGTQVTVSS | high polyreactivity
QVQRVESGGGLVQARGSLRLSCAPSGSIFPYYAMGCYRPAPGKERELVAGISRRGGTTYYADSVKGRLTISRDNAKNTVYIQMHSLKPEDTAVYYCAARYGPYVDRYGYCGQGTQVTVSS | high polyreactivity
QVQLVESGGGLVQAGGSLRLSCAASGYTIGIYAMGWYRQAPGKERELVAAISFSDGTTYYADSVKGRFTISRDNAKNTVYLQMNSLKPEDTAVYYCAAAAGGTVVGEGDYWGQGTQVTVSS | low polyreactivity
QVQLVESGGGLVQAGGSLRLSCAASGSIYPNAMGWNRQAPGKERELVAAIRRSSGSTYADSVKGRFTISRDNAKNTVYLQMNSLKPEDTAVYYCAAEWFAQPVGYDYWGQGTQVTVSS | high polyreactivity
QVQLVESCGGLVQAGGSLRLSCAASGSTFYLNAMGWYRQAPGKERELVAAIDYRGGSTYYADSVKGRFTISRDYAKNTVYLQMNSLKPEDTAVYYCAKDRPGFLVGWGGGYDYWGQGTQVTVSS | low polyreactivity
QVQLVESGGGLVQAGGSLRLSCADSGFTFSWYTMGWYRQAPGKERELVASITVSGGSTYYADSVKGRFTISRDNAKNTVYLQMNSLKPEDTAVYYCNAQDPFTYYSSSPTYDYWGQGTQVTVSS | low polyreactivity
QVQLVESGGGLVQAGGSLRLSCAASGIIFSSYGMGWYRQAPGKERELVAAIRWSTGNTYYADSVKGRFTISRDNAKNTVYLQMNSLKPEDTAVYYCAKRSSWGYHFYYWGQGTQVTVSS | high polyreactivity
QVQHVESGGGLGQAGGILRLSCAGCGRTFVRYAMGWYRQAPGNERELVAAITRSASTYYADSVKGRFTISRDNAKKTVDLQMTSLKPEDTSVYYCNAVWSRYRDLDFWGQGTQVTVSS | high polyreactivity
QVQLQESGGSLVQAGGSLRLSCAASGSISYPRTMGWYRQAPGKEREFVAGIGVGGTTYYADSVKGRFTISRDNAKITVYLQMNSLKPEDTAVYYCARRRSGPSVLYYYWGQGTQVTVSS | low polyreactivity
QVQLVESGGGLVQAGGSLRISCDASGSIYSSNALGWYSQAPGKERELVAAISSSGSRTYYADSVKGRFTISRDKALITVYVQMNSLIPVDTAVDYWAAVIRYTRSYDYWGQGTQVTVSS | high polyreactivity
QVQLVESGGGLVQAGGSLRLSCAASGSTFYYYAMGGYRQAPGKERELVAAINDAGGTNYADSVKGRFTISRDNAKNTVYLQMNSLKPEDTAVYYCAADGRIYLTYHEMEYWGQVTQVTVSS | low polyreactivity
QVQLVESGGGLVQAGGSLRLSCAASGSTFGVYAMGWYRQAPGKERELVASISSRGRTKYADSVKGSFTISRDNAKNTVYLQMIRLKPEDTAFYYCAARIRYLGVRDNDNYYWGQGTQVTVSS | low polyreactivity
QVQLVESGGGLVQAGGSLRLSGAASGRTFYQYAMGWYRQAPGKARELVAAISWSDGSTSYADSVKGRFTISRDNAKNTVYLQMNSLKPEDTAGYYCAKDWTGTKAIEYDYWGQGTQVTVSS | low polyreactivity
QVQLVESGGGLVQAGGSLRLSCAASGRIFYPYVMGWYRQAPGKERELVAAISDSTGSTYYADSVKGRFTISRDNAKNTVYLQMNSLKPEDTAVYYCAAGWFYATYWRFYYWGQGTLVTVSS | low polyreactivity
PVQLQESGGGLVQAGGSLRLSCAARGNIFDADIMGWYSQAPGKERELVACIADGGSTNYAHSVKGRFTISRDNAKNTVYLHMNSVKPEDTAVYYCAAIAYPDIPTCFDYYSDYFFRGQGTQVTVSS | low polyreactivity
QVQLVESRGGLVQAGGSLRLSCAASGFIITQYAMGWYRQAPGKERELVAAISGRGGSTYYADSVKGRFTISRDNAKNTVYLQMNSLIPEDTAVYYCNTVRIGPPQDYDYWGQGTQVTVSS | high polyreactivity
QVQLVESGGGLVQAGGSLRLSCAASGSIFNGYAMGWYRQAPGKERELVATITRGGGSTYYADSVKGRFTISRDNAKNTVYLQMNSLKPEDTAVYYCAKTYFYGVRRFNYWGQGTQVTVSS | high polyreactivity
QVQLVESGGALVQAGGSLRLSCAACGRTFWYNAMGWYRQAPGKERELVAAITRGGGRTYYADSVKGRFTISRDNAKNTVYLQMNSLKPEDTAVYYCAADSYYDMNYWGQGTQVTVSS | low polyreactivity

Sequence | polyreactivity (PSR sort gate)
QFQLVESGGGLDQARGSLRLTCAASGSIFARNAMGWYRQAPGKERELVAAITYSGGNTYYADSVKGRFTISRDNAKNTVYLQMNSLKPEDTAVYYCNKDWYPTYAAYNYYYWGQGTQVTVSS | high polyreactivity
QVQLVESGGGLVQAGGSLRLSCAASGGTFRSNAMGWYRQAPGKERELVAASTNYADSVKGRFTISRDNAKTTVYLQMNSLKPEDTAVYFCAARLASWPLTYDFQWYEYWGQGTQVTLSS | low polyreactivity
QLQLVESGGGLVQAGGSLRLSCAASGSIFVTYAMGWYSQAPGKEMELVAAINYSGGSTYYADSVTGRFTISRDNAKNTVYLQMNSLKPEATAVYYCAAAVAVFSFDYPHYYEYEYWGQGTQVTVSS | low polyreactivity
QVQLVESGGGLVQAGGSLRLSCAASGRTLQWYAMGWYRQAPGKERELVATISSGGSTKYADSVKGRFTISRDNAKNTVYLQMNSLKPEDTAVYYCNAQPYGIYYHRYYYWGQGTQVTVSS | low polyreactivity
QVQLVESGGGLVQAGGSLRLSCAASGSTFHVYAMGWYRQAPGKERELVAGITSSGYSTYYADSVKGRFTISRDNAKNTVYLKMNSLKPEETAVYYCNADIRGPYYYHRYDYWGQGTLVTVSS | low polyreactivity
HVQLVESGGGLVQAGGSLRLSCPASGRIFYRNPMGWYRQAPGKERELVAGISKRGGSTYYADSVKGRFTISRDNAKNTVYLQMNSLKPEDTAVYYCATVPYSPPSAGPEYDYWGQGTQVTVSS | high polyreactivity
QVQLVESGGGLVQAGGSLRLSCSASGRIFSTYAMGWYRQAPGKERELVAAINKIGGSTYYADSVKGRFTISRDNAKNTVYLQMNSLKPEDTAVYYCAADAPYYPVRRYYYWGQGTQVTVSS | low polyreactivity
QDQLVESGGGLVQAGGSLRLSCAPSGSIFYTNAMGWYRQAPRKERHLVAAISWGGGSTYYADSVKGRFTISRDNAKNTVYLQMNSLKAEDTAVYYCAARYYVYQQGFRSHVTKHYDYWGQGTQVTVSS | low polyreactivity
QVQLVESGGGLVQAGGSLRLSCAASGFTFHSYAMGWYRQAPGKERELVAAISTGGTRTYYADSVMGRVTISRDNAKNTVYLQMNSLKPEDTAVYYCAADLYRGVRIYSKYDSWGQGTQVTVSS | high polyreactivity
QVQLVESGGGLVQAGGSLRLSCAASGIIFPWSTMGWYRQAPGKERELVAAISSGGRTNYADSVKGRFTISRDNAKNTVYLQMNSLKPEDTAVYYCAAKYYRDRDWGQGTQVTVSS | high polyreactivity
QVQLVESGGGLVQAGGSLRLSCAASGRIFLQYAMGWYRQAPGKERELVAGISLRGGSTYYADSVKGRFTISRDNAKNTVYLQMNSLKPEDTAVYYCAADVIVTVETNTSGPSFTEYDYWGQGTQVTVSS | low polyreactivity
QVQLVESGGGLVQAGGSLRLSCAASGSTFSTYAMGWYRQAPGKERELVAAIRSGGSTYYADSVKGRFTISRDNAKNTVYLQMNSLKPEDTAVYYCAAKPRNYSYRYYYWGQGTQVTVSS | high polyreactivity
QVQLVESGGGLVQAGGSLRLSCAASGLIFWGYTMGWYRQAPGKEREFVAAISKSAGSTFYADSVKGRFTISRDNAKNTVYLQMNSLKPEDTAVYYCATGGFPGARVAYDYYYWGQGTQVTVSS | low polyreactivity
QVQLVESGGGLVQAGGSLRLSCAASGSIFIFNTMGWYRQAPGKETELVASISSSGSTYYADSVKGRFTISRANAKNTVYLQMNSLKPEDTAVYYCAADAEDRPSWPGNSEYEYWGQGTQVTVSS | low polyreactivity
QVQLVESGGGLVQAGGSLRLSCAASGRIFYYYTMGWYRQAPGKERELVAALTRSGSSTYADSVKGRFTISRDNAKNTVYLQMNSLKAEVTAVYYCAADYIRRYDYWGQGTQVTVSS | low polyreactivity
QVQLVDSGGGLVQAGGSLRLSCAASGRTYTYYAMGWYRQAPGKERELVAAISKSGGSTYYADSVKGRFTISRDNAKNTVYLQMNSLKPEDTAVYYFAKVYRYSSLYYYWGQGTQVTVSS | low polyreactivity
QVQLVESGGGLLQAGGSLRLSCAASGFTFSTNAMGWYRQAPGKERDLVAAITWRGGSTYYADSVKGRFTISRDIAKKTVYVQLNSLKPEDTAVYYCAGRSRGSHVSYYKKFDYWGQGTHVTVSS | low polyreactivity
QVQLVESGGGLVQAGGRLRLRCAASGFIFSIYTMGWYRQAPGKERELVAAISWSGGSKYYADSVKGRFTISRDNAKNTVYLQMNSLKPEDTAVYYCNRVQFSPVYRFREYDYWGQGTQVTVSS | high polyreactivity
QVQLVESGGGLVQAGGSLRLSCAASGRIFERYAMGRYRQAPGKERELVAAISVSGSGTYYADSVKGRFTISRDNAKNTVYLQINSLKPEDTAVYYCAADASLLGLYYYLFYLEVNYWGQGTQVTVSS | low polyreactivity
QVQLVESGGGLVQAGVSLLLSCAASGSTFGYNAMVCYRQAPGKERELVAAITSSGSTTYYADSVKGRFTISRDNAKNSVYLQLNSLKREDTAVYYCNAPAYYLHYGLYARYDYWGQGTQVTVSS | low polyreactivity
QVQLVESGGGLVQAGGSLRLSCAASGSIFGYYAMGWYRQAPGKERELVAAISGNGGNTYYADSVKGRFTISRDNAKNTVYLQMNSLKPEDTAVYYCNRAPGYRGGRYDYWGQGTQVTVSS | high polyreactivity
